Test results reported in patent publication US20130336893A1 (Sanofi, published 2013).
*1 amine or outer side, *2 acyl side, *3 side chain or, on linkers, in order; H or OH if unused. Where no end group is shown, it is not given here. [ ]: non-standard residue; d: D form. Ser(Me) = COC[C@H](N[*:1])C(=O)[*:2]; NMeQ = CN[C@@H](CCC(N)=O)C(=O)O

Experiments:
[1] = target: human GLP-1 receptor (human, UniProt P43220 24-463); assay: cell-based or functional assay
[2] = target: human glucagon receptor (human, UniProt P47871 26-477); assay: cell-based or functional assay
human glucagon receptor, sequence (P47871 26-477): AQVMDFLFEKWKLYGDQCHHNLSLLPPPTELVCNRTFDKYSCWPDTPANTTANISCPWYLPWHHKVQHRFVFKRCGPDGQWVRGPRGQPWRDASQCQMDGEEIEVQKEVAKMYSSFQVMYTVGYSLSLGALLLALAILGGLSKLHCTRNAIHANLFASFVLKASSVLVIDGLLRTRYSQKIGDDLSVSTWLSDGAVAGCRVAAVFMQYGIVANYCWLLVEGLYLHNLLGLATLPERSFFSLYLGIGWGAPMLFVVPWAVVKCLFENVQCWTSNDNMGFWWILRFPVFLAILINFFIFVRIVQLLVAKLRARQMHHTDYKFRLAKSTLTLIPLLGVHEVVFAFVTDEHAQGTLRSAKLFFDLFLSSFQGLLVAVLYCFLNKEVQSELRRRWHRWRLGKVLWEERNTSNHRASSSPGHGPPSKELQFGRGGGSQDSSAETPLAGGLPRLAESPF

Binder | EC50 hGLP-1R (cAMP formation) [1] | EC50 hGlucagonR (cAMP formation) [2]
H[dS]QGTFTSDLSKQMDSRRAKDFIEWLKNGGPSSGAPPPS-NH2 (N-terminus assumed; SMILES CC[C@H](C)[C@H](NC(=O)[C@H](Cc1ccccc1)NC(=O)[C@H](CC(=O)O)NC(=O)[C@H](CCCCN)NC(=O)[C@H](C)NC(=O)[C@H](CCCNC(=N)N)NC(=O)[C@H](CCCNC(=N)N)NC(=O)[C@H](CO)NC(=O)[C@H](CC(=O)O)NC(=O)[C@H](CCSC)NC(=O)[C@H](CCC(N)=O)NC(=O)[C@H](CCCCN)NC(=O)[C@H](CO)NC(=O)[C@H](CC(C)C)NC(=O)[C@H](CC(=O)O)NC(=O)[C@H](CO)NC(=O)[C@@H](NC(=O)[C@H](Cc1ccccc1)NC(=O)[C@@H](NC(=O)CNC(=O)[C@H](CCC(N)=O)NC(=O)[C@@H](CO)NC(=O)[C@@H](N)Cc1c[nH]cn1)[C@@H](C)O)[C@@H](C)O)C(=O)N[C@@H](CCC(=O)O)C(=O)N[C@@H](Cc1c[nH]c2ccccc12)C(=O)N[C@@H](CC(C)C)C(=O)N[C@@H](CCCCN)C(=O)N[C@@H](CC(N)=O)C(=O)NCC(=O)NCC(=O)N1CCC[C@H]1C(=O)N[C@@H](CO)C(=O)N[C@@H](CO)C(=O)NCC(=O)N[C@@H](C)C(=O)N1CCC[C@H]1C(=O)N1CCC[C@H]1C(=O)N1CCC[C@H]1C(=O)N[C@@H](CO)C(N)=O) [SEQ ID NO: (30)] | 0.0505 nM | 1.05 nM
H[dS]QGTFTSDLSKQMDSRRARDFIEWLKNGGPSSGAPPPS-NH2 (N-terminus assumed; SMILES CC[C@H](C)[C@H](NC(=O)[C@H](Cc1ccccc1)NC(=O)[C@H](CC(=O)O)NC(=O)[C@H](CCCNC(=N)N)NC(=O)[C@H](C)NC(=O)[C@H](CCCNC(=N)N)NC(=O)[C@H](CCCNC(=N)N)NC(=O)[C@H](CO)NC(=O)[C@H](CC(=O)O)NC(=O)[C@H](CCSC)NC(=O)[C@H](CCC(N)=O)NC(=O)[C@H](CCCCN)NC(=O)[C@H](CO)NC(=O)[C@H](CC(C)C)NC(=O)[C@H](CC(=O)O)NC(=O)[C@H](CO)NC(=O)[C@@H](NC(=O)[C@H](Cc1ccccc1)NC(=O)[C@@H](NC(=O)CNC(=O)[C@H](CCC(N)=O)NC(=O)[C@@H](CO)NC(=O)[C@@H](N)Cc1c[nH]cn1)[C@@H](C)O)[C@@H](C)O)C(=O)N[C@@H](CCC(=O)O)C(=O)N[C@@H](Cc1c[nH]c2ccccc12)C(=O)N[C@@H](CC(C)C)C(=O)N[C@@H](CCCCN)C(=O)N[C@@H](CC(N)=O)C(=O)NCC(=O)NCC(=O)N1CCC[C@H]1C(=O)N[C@@H](CO)C(=O)N[C@@H](CO)C(=O)NCC(=O)N[C@@H](C)C(=O)N1CCC[C@H]1C(=O)N1CCC[C@H]1C(=O)N1CCC[C@H]1C(=O)N[C@@H](CO)C(N)=O) [SEQ ID NO: (31)] | 0.0109 nM | 0.132 nM
H[Ser(Me)]QGTFTSDLSKQMDSRRAQDFIEWLKNGGPSSGAPPPS-NH2 (N-terminus assumed; SMILES CC[C@H](C)[C@H](NC(=O)[C@H](Cc1ccccc1)NC(=O)[C@H](CC(=O)O)NC(=O)[C@H](CCC(N)=O)NC(=O)[C@H](C)NC(=O)[C@H](CCCNC(=N)N)NC(=O)[C@H](CCCNC(=N)N)NC(=O)[C@H](CO)NC(=O)[C@H](CC(=O)O)NC(=O)[C@H](CCSC)NC(=O)[C@H](CCC(N)=O)NC(=O)[C@H](CCCCN)NC(=O)[C@H](CO)NC(=O)[C@H](CC(C)C)NC(=O)[C@H](CC(=O)O)NC(=O)[C@H](CO)NC(=O)[C@@H](NC(=O)[C@H](Cc1ccccc1)NC(=O)[C@@H](NC(=O)CNC(=O)[C@H](CCC(N)=O)NC(=O)[C@H](COC)NC(=O)[C@@H](N)Cc1c[nH]cn1)[C@@H](C)O)[C@@H](C)O)C(=O)N[C@@H](CCC(=O)O)C(=O)N[C@@H](Cc1c[nH]c2ccccc12)C(=O)N[C@@H](CC(C)C)C(=O)N[C@@H](CCCCN)C(=O)N[C@@H](CC(N)=O)C(=O)NCC(=O)NCC(=O)N1CCC[C@H]1C(=O)N[C@@H](CO)C(=O)N[C@@H](CO)C(=O)NCC(=O)N[C@@H](C)C(=O)N1CCC[C@H]1C(=O)N1CCC[C@H]1C(=O)N1CCC[C@H]1C(=O)N[C@@H](CO)C(N)=O) [SEQ ID NO: (28)] | 0.128 nM | 6.48 nM
HS[NMeQ]GTFTSDLSKQMDSRRAQDFIEWLKNGGPSSGAPPPS-NH2 (N-terminus assumed; SMILES CC[C@H](C)[C@H](NC(=O)[C@H](Cc1ccccc1)NC(=O)[C@H](CC(=O)O)NC(=O)[C@H](CCC(N)=O)NC(=O)[C@H](C)NC(=O)[C@H](CCCNC(=N)N)NC(=O)[C@H](CCCNC(=N)N)NC(=O)[C@H](CO)NC(=O)[C@H](CC(=O)O)NC(=O)[C@H](CCSC)NC(=O)[C@H](CCC(N)=O)NC(=O)[C@H](CCCCN)NC(=O)[C@H](CO)NC(=O)[C@H](CC(C)C)NC(=O)[C@H](CC(=O)O)NC(=O)[C@H](CO)NC(=O)[C@@H](NC(=O)[C@H](Cc1ccccc1)NC(=O)[C@@H](NC(=O)CNC(=O)[C@H](CCC(N)=O)N(C)C(=O)[C@H](CO)NC(=O)[C@@H](N)Cc1c[nH]cn1)[C@@H](C)O)[C@@H](C)O)C(=O)N[C@@H](CCC(=O)O)C(=O)N[C@@H](Cc1c[nH]c2ccccc12)C(=O)N[C@@H](CC(C)C)C(=O)N[C@@H](CCCCN)C(=O)N[C@@H](CC(N)=O)C(=O)NCC(=O)NCC(=O)N1CCC[C@H]1C(=O)N[C@@H](CO)C(=O)N[C@@H](CO)C(=O)NCC(=O)N[C@@H](C)C(=O)N1CCC[C@H]1C(=O)N1CCC[C@H]1C(=O)N1CCC[C@H]1C(=O)N[C@@H](CO)C(N)=O) [SEQ ID NO: (25)] | 0.17 nM | 0.171 nM
HSEGTFTSDLSKQMDSRRAQDFIEWLKNGGPSSGAPPPS-NH2 [SEQ ID NO: (10)] | 0.0313 nM | 16.7 nM
H[dS]QGTFTSDLSKQMDSRRAHDFIEWLKNGGPSSGAPPPS-NH2 (N-terminus assumed; SMILES CC[C@H](C)[C@H](NC(=O)[C@H](Cc1ccccc1)NC(=O)[C@H](CC(=O)O)NC(=O)[C@H](Cc1c[nH]cn1)NC(=O)[C@H](C)NC(=O)[C@H](CCCNC(=N)N)NC(=O)[C@H](CCCNC(=N)N)NC(=O)[C@H](CO)NC(=O)[C@H](CC(=O)O)NC(=O)[C@H](CCSC)NC(=O)[C@H](CCC(N)=O)NC(=O)[C@H](CCCCN)NC(=O)[C@H](CO)NC(=O)[C@H](CC(C)C)NC(=O)[C@H](CC(=O)O)NC(=O)[C@H](CO)NC(=O)[C@@H](NC(=O)[C@H](Cc1ccccc1)NC(=O)[C@@H](NC(=O)CNC(=O)[C@H](CCC(N)=O)NC(=O)[C@@H](CO)NC(=O)[C@@H](N)Cc1c[nH]cn1)[C@@H](C)O)[C@@H](C)O)C(=O)N[C@@H](CCC(=O)O)C(=O)N[C@@H](Cc1c[nH]c2ccccc12)C(=O)N[C@@H](CC(C)C)C(=O)N[C@@H](CCCCN)C(=O)N[C@@H](CC(N)=O)C(=O)NCC(=O)NCC(=O)N1CCC[C@H]1C(=O)N[C@@H](CO)C(=O)N[C@@H](CO)C(=O)NCC(=O)N[C@@H](C)C(=O)N1CCC[C@H]1C(=O)N1CCC[C@H]1C(=O)N1CCC[C@H]1C(=O)N[C@@H](CO)C(N)=O) [SEQ ID NO: (29)] | 0.028 nM | 0.149 nM
